# In patent publication US12698483B2 (priority 2019, dated 2026):
# “Also recorded” adds a separate entry of the source.
# B1: TrGST-C12 (protein, listed as Triticum aestivum)
# chain: MAGGDDLKLLGAWASPFVARVKLALSFKGLSFEDVEEDLSNKSELLLSSNPVHKKVPVLVHNGKPICESMIIVQYIDEAFLVGPSLLPSDPYKRAIARFWAAYIDDKLVTPWVQSLRAKTEEEKSEGVKQTFAAVETLEGALRECSKGEGYFGGETVGLVDISLGSLLSWLIATEVMSGTKIFDPVKTPLLAAWMGRFSELDAAKAALPEVDRVVEFAKKRQAQADAAAAASETK
# B2: TrGST-C02 (protein, listed as Triticum aestivum)
# chain: MAGGDDLKLLGAWASPFVTRVKLALNFKGLSFEDVEEDLSNKSELLLSSNPVHKKVPVLVHNGKPICESVIIVQYIDEAFAGIGPALLPSDPYERAIARFWAAYVDDKLVAPWVQSLRAKTEEEKSEGLKQTFAAVETLEGALRECSKGEGYFGGETVGLVDISLGSLLSWLNATEVMSGTKIFDPVKTPLLAAWMERFSKLDAAKAALPEVDRVVEFAKKRQAQAAAAAAASETK
# Tests used:
# Format in all cases: biochemical
# [1] = Enzyme dependent formation of the GSH adduct with roridin A; conditions: FIG. 17; pCA02 empty vector and no protein as controls
# [2] = Enzyme dependent formation of the GSH adduct with trichodermin; conditions: FIG. 14; pCA02 empty vector and no protein as controls
# [3] = Enzyme dependent formation of the GSH adduct with T-2 toxin; conditions: FIG. 11; pCA02 empty vector and no protein as controls
# [4] = Enzymatic DON-GSH conjugation assay (LC-HRMS, Orbitrap); conditions: 100 ppm DON, 5 mM GSH, pH6, within 24 hours; for formation of the Michael adduct of DON (MH1): against nonenzymatic background; for formation of the epoxide adduct of DON (MH2, DON-13-GSH): result in words
molecule,measurement,setting,value
B1,formation of the GSH adduct with roridin A (Roridin-GSH_MH),[1],Enzyme dependent formation of the GSH adduct
same,formation of the GSH adduct with trichodermin (Trichodermin-GSH_MH),[2],Enzyme dependent formation of the GSH adduct
same,formation of the GSH adduct with T-2 toxin (T-2-GSH_MH),[3],Enzyme dependent formation of the GSH adduct
same,formation of the Michael adduct of DON (MH1),[4],clearly enhance Michael adduct formation; also recorded: clearly catalyze
same,"formation of the epoxide adduct of DON (MH2, DON-13-GSH)",[4],clearly catalyze the formation of the epoxide-adduct; also recorded: catalyzed
B2,formation of the GSH adduct with roridin A (Roridin-GSH_MH),[1],Enzyme dependent formation of the GSH adduct
same,formation of the GSH adduct with trichodermin (Trichodermin-GSH_MH),[2],Enzyme dependent formation of the GSH adduct
same,formation of the GSH adduct with T-2 toxin (T-2-GSH_MH),[3],Enzyme dependent formation of the GSH adduct
same,formation of the Michael adduct of DON (MH1),[4],clearly enhance Michael adduct formation; also recorded: clearly catalyze
same,"formation of the epoxide adduct of DON (MH2, DON-13-GSH)",[4],clearly catalyze the formation of the epoxide-adduct; also recorded: catalyzed
